Legend:
[1] = substrate: CC(C)(C)OO; test: hydroperoxide removal, FOX1 (xylenol orange) assay, Michaelis-Menten; type: biochemical, Hydrogenobacter thermophilus; details: 0.5 mM NADPH and FNR as electron donor system, 50 mM sodium phosphate pH 6.0, 50°C, anaerobic
[2] = substrate: CC(C)(OO)c1ccccc1; test: as above; type: biochemical, Hydrogenobacter thermophilus; details: 0.5 mM NADPH and FNR as electron donor system, 50 mM sodium phosphate pH 6.0, 50°C, anaerobic

B1: ferriperoxin (Fpx) (Hydrogenobacter thermophilus TK-6) (protein)
chain: MKSLAGTKTLECLKHAFAGESQANRRYLYFARKADIEGYPDIANVFRETAEGETGHAFGHLEFLEKYGGGDPATGKPIGSMEQNLEAAIAGETYEYTEMYPGFAKTAREEGFDDIAEWFETLARAEKSHAGRFQKALESLKA
notes: full-length untagged (own start and stop codon, pET21c NdeI-HindIII), E. coli BL21(DE3); N-terminus MKSLAGTKTL; diiron holoprotein
**Q.** What does the source list for B1?
**A.** Km [1]: 1300 ± 300 µM; Km [2]: 1100 ± 200 µM

Reference: paper PMC3317640, “A Novel Enzymatic System against Oxidative Stress in the Thermophilic Hydrogen-Oxidizing Bacterium Hydrogenobacter thermophilus” (PLoS ONE, 2012)
